Data on 9 molecules can be found in publication PMC6318249, “DNA Binding and Phosphorylation Regulate the Core Structure of the NF-κB p50 Transcription Factor” (Journal of the American Society for Mass Spectrometry, 2018).

The term stoichiometry N denotes a count of units in the complex or per binding partner. As a reminder, the Kd is the concentration at which binding is half-saturated.

The target of data set [1] is Murine NF-κB p50 (39-364) S65D (murine) (UniProt P25799). The data set is described as follows: native MS; native IM-MS of p50 (39-364) WT and Ser to Asp variants, no DNA; 100 mM NH4OAc, typically 5 μM; percentage peak areas of monomer and dimer by multi-Gaussian fitting.
The target of data set [2] is Murine NF-κB p50 (39-364) S242D (murine) (UniProt P25799). Described as above.
Data set [3] addresses Murine NF-κB p50 (39-364) S248D (murine) (UniProt P25799). The description is as above.
The target in data set [4] is Murine NF-κB p50 (39-364) S337D (murine) (UniProt P25799). Briefly: SEC; size exclusion chromatography of p50 (39-364); monomer measured by protein staining and densitometry.
The target is the same in data set [5]. Briefly: native MS; native IM-MS of p50 (39-364) WT and Ser to Asp variants, no DNA; 100 mM NH4OAc, typically 5 μM; percentage peak areas of monomer and dimer by multi-Gaussian fitting.
In data set [6] the target is Murine NF-κB p50 (39-364) wild-type (murine) (UniProt P25799). Described as above.
The target of data set [7] is p50 (35-381, Enzo Scientific) 35-381 (UniProt P19838). Briefly: native nESI-MS, monomer:dimer ratio, no DNA. The following applies: reference: p50 before phosphorylation; sites S328,S337.
Data set [8] has the same target. Briefly: native nESI-MS, monomer:dimer, with κB DNA. To be noted: reference: non-phosphorylated p50 plus DNA; sites S328,S337.
Data set [9] concerns the molecule itself. Briefly: native MS; nano-ESI native MS of p50 (35-381) before and after in vitro phosphorylation with PKAc or Chk1; 100 mM NH4OAc, typically 5 μM; without and with the κB DNA oligomer; monomer and dimer charge states compared.
The target of data set [10] is p50 S248D (Mus musculus, UniProt P25799 39-364, S246D). Briefly: native MS titration; KD: 3 uM p50 with 0.2-6 uM DNA in 300 mM NH4OAc, 5 min, room temperature, 10 uL, pH not stated; native nESI-(IM-)MS. The following applies: protein: recombinant; tags: His6-MBP removed by 3C protease; chain copies: 2; blunt; strand is self-complementary.
Chain of p50 S248D (P25799 39-364 S246D): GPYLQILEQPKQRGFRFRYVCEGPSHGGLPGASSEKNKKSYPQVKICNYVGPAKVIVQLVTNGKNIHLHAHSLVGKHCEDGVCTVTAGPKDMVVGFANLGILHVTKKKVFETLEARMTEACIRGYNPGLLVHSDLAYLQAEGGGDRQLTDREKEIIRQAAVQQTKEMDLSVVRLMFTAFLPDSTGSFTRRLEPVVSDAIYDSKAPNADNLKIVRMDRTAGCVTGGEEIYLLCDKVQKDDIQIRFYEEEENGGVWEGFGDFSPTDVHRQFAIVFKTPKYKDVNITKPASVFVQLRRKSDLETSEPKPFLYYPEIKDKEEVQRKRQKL
In data set [11] the target is p50 WT (Mus musculus, UniProt P25799 39-364). The description is as above. The following applies: protein: recombinant; tags: His6-MBP removed by 3C protease; chain copies: 2; blunt; strand is self-complementary.
Chain of p50 WT (P25799 39-364): as the sequence (P25799 39-364 S246D) above, with D208S counted along it
For data set [12], the target named is p50 S65D (Mus musculus, UniProt P25799 39-364, S63D). The description is as above. To be noted: protein: recombinant; tags: His6-MBP removed by 3C protease; chain copies: 2; blunt; strand is self-complementary.
Chain of p50 S65D (P25799 39-364 S63D): as the sequence (P25799 39-364 S246D) above, with S25D, D208S counted along it
The target of data set [13] is p50 S242D (Mus musculus, UniProt P25799 39-364, S240D). Described as above. The following applies: protein: recombinant; tags: His6-MBP removed by 3C protease; chain copies: 2; blunt; strand is self-complementary.
Chain of p50 S242D (P25799 39-364 S240D): as the sequence (P25799 39-364 S246D) above, with S202D, D208S counted along it
Data set [14] has as its target p50 S337D (Mus musculus, UniProt P25799 39-364, S335D). Described as above. To be noted: protein: recombinant; tags: His6-MBP removed by 3C protease; chain copies: 2; blunt; strand is self-complementary.

Chain of p50 S337D (P25799 39-364 S335D): as the sequence (P25799 39-364 S246D) above, with D208S, S297D counted along it

In data set [1], “Murine NF-κB p50 (39-364) S65D (from UniProt P25799 39-364) (domain or fragment)” displayed a percentage peak area of dimer of 90.6%, a percentage peak area of monomer of 9.4% and a stoichiometry N of 2.
On to “Murine NF-κB p50 (39-364) S242D (from UniProt P25799 39-364) (domain or fragment)”, for which, in data set [2], the percentage peak area of dimer was determined as 87.6%, the percentage peak area of monomer is 12.4% and the stoichiometry N was 2.
In data set [3], “Murine NF-κB p50 (39-364) S248D (from UniProt P25799 39-364) (domain or fragment)” showed a percentage peak area of dimer of 94.2%, a percentage peak area of monomer of 5.8% and a stoichiometry N of 2.
In data set [4], “Murine NF-κB p50 (39-364) S337D (from UniProt P25799 39-364) (domain or fragment)” had a fold increase in monomer relative to WT p50 of 5 fold. In [5], this molecule gave a percentage peak area of dimer of 74.8%, a percentage peak area of monomer of 25.2% and a stoichiometry N of 2.
In [6], “Murine NF-κB p50 (39-364) wild-type (from UniProt P25799 39-364) (domain or fragment)” showed a percentage peak area of dimer of 89.5%, a percentage peak area of monomer of 10.5% and a stoichiometry N of 2.
Consider “p50 (35-381, Enzo Scientific) 35-381 (from UniProt P19838) PKAc-phosphorylated p50”, for which the “binding against the reference” value in [7] is given as “weaker”.
As for “p50 (35-381, Enzo Scientific) 35-381 (from UniProt P19838) PKAc-phosphorylated p50 plus DNA”, in data set [8], the “binding against the reference” value was “same”.

B1: NF-κB p50 (35-381), non-phosphorylated (domain or fragment, UniProt P19838 35-381, looked up)
chain: MALPTDGPYLQILEQPKQRGFRFRYVCEGPSHGGLPGASSEKNKKSYPQVKICNYVGPAKVIVQLVTNGKNIHLHAHSLVGKHCEDGICTVTAGPKDMVVGFANLGILHVTKKKVFETLEARMTEACIRGYNPGLLVHPDLAYLQAEGGGDRQLGDREKELIRQAALQQTKEMDLSVVRLMFTAFLPDSTGSFTRRLEPVVSDAIYDSKAPNASNLKIVRMDRTAGCVTGGEEIYLLCDKVQKDDIQIRFYEEEENGGVWEGFGDFSPTDVHRQFAIVFKTPKYKDINITKPASVFVQLRRKSDLETSEPKPFLYYPEIKDKEEVQRKRQKLMPNFSDSFGGGSGAG
notes: NF-κB p50, the proteolytic product of p105 (NF-κB1), residues 35-381; also called recombinant p50 (35-381); source: bought: Enzo Scientific
As to B1, the “stoichiometry N” value in data set [9] was 2.

B2: kB DNA oligomer (KD determination) (dsDNA)
DNA 1: CCCCCGGGGGCCCCCGGGGG
DNA 2: CCCCCGGGGGCCCCCGGGGG
Turning to B2, the Kd in data set [10] was 112 ± 11 nM; in data set [11], 37 ± 7 nM; in data set [12], 140 ± 16 nM; in data set [13], 424 ± 78 nM; in data set [14], 111 ± 15 nM.
